The record followed here is US20260028423A1, “PREDICTION OF AN INCREASE OF DPP3 IN A PATIENT WITH SEPTIC SHOCK” (4TEEN4 Pharmaceuticals GmbH, priority 2022, published 2026).

Experiment [1] concerns the target T1, native DPP3 from blood cells (Homo sapiens, UniProt Q9NY33).
T1 construct: from tissue; host or cells: blood cells
T1 sequence (Q9NY33 1-737): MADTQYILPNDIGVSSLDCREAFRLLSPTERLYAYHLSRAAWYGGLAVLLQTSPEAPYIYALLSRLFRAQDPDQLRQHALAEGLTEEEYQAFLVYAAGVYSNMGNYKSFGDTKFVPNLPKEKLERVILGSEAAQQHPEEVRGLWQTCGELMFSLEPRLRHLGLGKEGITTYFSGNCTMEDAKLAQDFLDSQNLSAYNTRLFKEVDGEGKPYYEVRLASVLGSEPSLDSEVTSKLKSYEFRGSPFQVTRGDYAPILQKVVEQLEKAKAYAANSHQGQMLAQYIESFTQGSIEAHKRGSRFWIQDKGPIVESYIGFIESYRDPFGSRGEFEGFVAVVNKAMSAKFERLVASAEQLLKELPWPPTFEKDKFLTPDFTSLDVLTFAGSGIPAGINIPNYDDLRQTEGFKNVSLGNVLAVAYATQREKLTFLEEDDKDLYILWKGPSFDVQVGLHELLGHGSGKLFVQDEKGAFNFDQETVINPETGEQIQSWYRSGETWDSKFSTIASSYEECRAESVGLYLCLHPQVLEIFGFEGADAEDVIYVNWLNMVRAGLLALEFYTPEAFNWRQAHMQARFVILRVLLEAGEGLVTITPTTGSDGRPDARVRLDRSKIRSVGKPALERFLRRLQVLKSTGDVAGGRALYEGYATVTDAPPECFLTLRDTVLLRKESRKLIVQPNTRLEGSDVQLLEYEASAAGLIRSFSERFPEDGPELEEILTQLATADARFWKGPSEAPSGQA
Put plainly: DPP3 inhibition curve (FIG. 7). Format: biochemical. The note with it: against 15 ng/ml DPP3.

Experiment [2] deals with T2, Recombinant GST-tagged hDPP3 (Homo sapiens, UniProt Q9NY33).
T2 construct: purchased USBio (United States Biological, Salem, MA, USA)
T2 sequence (Q9NY33 1-737): T1 sequence (Q9NY33 1-737)
Put plainly: hDPP3 inhibition analysis (DPP3 activity assay, Arg-Arg-βNA). Format: biochemical. The note with it: 25 ng/ml GST-DPP3, 10 μg antibody. The procedure: To analyze the capability of DPP3 inhibition by the different antibodies and antibody clones a DPP3 activity assay with known procedure (Jones et al., 1982) was performed. Recombinant GST-tagged hDPP3 was diluted in assay buffer (25 ng/ml GST-DPP3 in 50 mM Tris-HCl, pH7,5 and 100 μM ZnCl2) and 200 μl of this solution incubated with 10 μg of the respective antibody at room temperature. After 1 hour of pre-incubation, fluorogenic substrate Arg-Arg-βNA (20 μl, 2 mM) was added to the solution and the generation of free βNA over time was monitored using the Twinkle LB 970 microplate fluorometer (Berthold Technologies GmbH & Co. KG) at 37° C. Fluorescence of βNA is detected by exciting at 340 nm and measuring emission at 410 nm. Slopes (in RFU/min) of increasing fluorescence of the different samples are calculated. The slope of GST-hDPP3 with buffer control is appointed as 100% activity. The inhibitory ability of a possible capture-binder is defined as the decrease of GST-hDPP3 activity by incubation with said capture-binder in percent.

The target of experiment [3] is T3, DPP3 (Homo sapiens, UniProt Q9NY33).
T3 construct: from tissue; host or cells: lysate of blood cells from human EDTA-blood
T3 sequence (Q9NY33 1-737): T1 sequence (Q9NY33 1-737)
Briefly: Western Blot analysis of binding specificity in blood cell lysate. The conditions noted are these: AK1967 as primary antibody. Here is the method: Blood cells from human EDTA-blood were washed (3× in PBS), diluted in PBS and lysed by repeated freeze-thaw-cycles. […] Dilutions of blood cell lysate (1:40, 1:80, 1:160 and 1:320) and of purified recombinant human His-DPP3 (31.25-500 ng/ml) were subjected to SDS-PAGE and Western Blot. The blots were incubated in 1.) blocking buffer (1×PBS-T with 5% skim milk powder), 2.) primary antibody solution (AK1967 1:2.000 in blocking buffer) and 3.) HRP labelled secondary antibody (goat anti mouse IgG, 1:1.000 in blocking buffer). Bound secondary antibody was detected using the Amersham ECL Western Blotting Detection Reagent and the Amersham Imager 600 UV (both from GE Healthcare).
On the technique in general: In western blotting, separated proteins are transferred to a membrane and probed.

For “Clone 1967: anti-DPP3 monoclonal antibody, clone 1967 of SEQ ID No.: 37 (AK1967; Procizumab); humanized chains SEQ ID No. 47 and 48”, the “IC50 of DPP3 inhibition” value in experiment [1] is “about 15 ng/ml”. The “Max. inhibition of hDPP3” value in experiment [2] was 70%. Moreover, in experiment [3], the “binding specificity in lysate of blood cells” value was “no other unspecific binding takes place”.
